Laboratory results reported in PMC5364462.

Target: Myr-GCN4-GFP
Experiment: fluorescence correlation spectroscopy (FCS); GFP-tagged membrane control proteins in live cells, same instrument and illumination conditions; cell line not stated; median molecular brightness

median molecular brightness: 746 cpsm
Substance: Myr-GCN4-GFP
